Columns and labels:
[1] = target: Human CD4 on CD4+CD25+ regulatory T cells of healthy donors (human, UniProt P01730 26-458); test: cell-based or functional assay
[2] = target: T1, Human CD4 on CD4+CD25+ regulatory T cells (human, UniProt P01730 26-458); test: in vitro assay with CD4+CD25+ regulatory T cells (allogeneic mixed lymphocyte reaction); no separate binding assay described
T1 construct: CD4 on Tregs or T cells of healthy human donors
Description: CD4+ CD25+ regulatory T cells were freshly isolated from a first donor (donor A). PBMCs were obtained from EDTA-blood by density gradient centrifugation. […] Tregs were pre-incubated with or without plate-bound antibody for 2 days. The number and phenotype of Tregs was determined by six colour flow cytometry as previously described (Haas et al., 2007). Pre-incubated Tregs were transferred to responder T cells (second donor B) in the presence of T-cell depleted and irradiated PBMCs (first donor A). After stimulation, [³H] thymidine was added and proliferation of responder T cells was measured after five days.

| Binder | % Inh1 [1] [%] | % Inh2 [1] [%] | % Inh3 [1] [%] | Avg. % inhibition [1] [%] | binding result [2] |
| --- | --- | --- | --- | --- | --- |
| BT61 Lot 52690 (antibody, human IgG1, kappa, V domains shown) VH: EEQLVESGGGLVKPGGSLRLSCAASGFSFSDCRMYWLRQAPGKGLEWIGVISVKSENYGANYAESVRGRFTISRDDSKNTVYLQMNSLKTEDTAVYYCSASYYRYDVGAWFAYWGQGTLVTVSS VL: DIVMTQSPDSLAVSLGERATINCRASKSVSTSGYSYIYWYQQKPGQPPKLLIYLASILESGVPDRFSGSGSGTDFTLTISSLQAEDVAVYYCQHSRELPWTFGQGTKVEIKR | 26.7 | 24.1 | 27.8 | 26.2 |  |
| LC L98I HC R33K (antibody, V domains shown) VH: EEQLVESGGGLVKPGGSLRLSCAASGFSFSDCKMYWLRQAPGKGLEWIGVISVKSENYGANYAESVRGRFTISRDDSKNTVYLQMNSLKTEDTAVYYCSASYYRYDVGAWFAYWGQGTLVTVSS VL: DIVMTQSPDSLAVSLGERATINCRASKSVSTSGYSYIYWYQQKPGQPPKLLIYLASILESGVPDRFSGSGSGTDFTLTISSLQAEDVAVYYCQHSREIPWTFGQGTKVEIKR | 9.2 | 24.3 | 24.6 | 19.4 |  |
| LC master HC R33K (antibody, V domains shown) VH: EEQLVESGGGLVKPGGSLRLSCAASGFSFSDCKMYWLRQAPGKGLEWIGVISVKSENYGANYAESVRGRFTISRDDSKNTVYLQMNSLKTEDTAVYYCSASYYRYDVGAWFAYWGQGTLVTVSS VL: DIVMTQSPDSLAVSLGERATINCRASKSVSTSGYSYIYWYQQKPGQPPKLLIYLASILESGVPDRFSGSGSGTDFTLTISSLQAEDVAVYYCQHSRELPWTFGQGTKVEIKR | 19.8 | 18.8 | 15 | 17.9 |  |
| LC master HC R33K-A63G (antibody, V domains shown) VH: EEQLVESGGGLVKPGGSLRLSCAASGFSFSDCKMYWLRQAPGKGLEWIGVISVKSENYGANYGESVRGRFTISRDDSKNTVYLQMNSLKTEDTAVYYCSASYYRYDVGAWFAYWGQGTLVTVSS VL: DIVMTQSPDSLAVSLGERATINCRASKSVSTSGYSYIYWYQQKPGQPPKLLIYLASILESGVPDRFSGSGSGTDFTLTISSLQAEDVAVYYCQHSRELPWTFGQGTKVEIKR | 15.7 | 21.5 | 21.9 | 19.7 |  |
| HC master LC L98I (antibody, V domains shown) VH: EEQLVESGGGLVKPGGSLRLSCAASGFSFSDCRMYWLRQAPGKGLEWIGVISVKSENYGANYAESVRGRFTISRDDSKNTVYLQMNSLKTEDTAVYYCSASYYRYDVGAWFAYWGQGTLVTVSS VL: DIVMTQSPDSLAVSLGERATINCRASKSVSTSGYSYIYWYQQKPGQPPKLLIYLASILESGVPDRFSGSGSGTDFTLTISSLQAEDVAVYYCQHSREIPWTFGQGTKVEIKR | 12.2 | 8.4 | 18.2 | 12.9 |  |
| LC master HC A63G (antibody, V domains shown) VH: EEQLVESGGGLVKPGGSLRLSCAASGFSFSDCRMYWLRQAPGKGLEWIGVISVKSENYGANYGESVRGRFTISRDDSKNTVYLQMNSLKTEDTAVYYCSASYYRYDVGAWFAYWGQGTLVTVSS VL: DIVMTQSPDSLAVSLGERATINCRASKSVSTSGYSYIYWYQQKPGQPPKLLIYLASILESGVPDRFSGSGSGTDFTLTISSLQAEDVAVYYCQHSRELPWTFGQGTKVEIKR | 33.1 | 25.5 | 19.5 | 26 |  |
| LC G33A HC R33K (antibody, V domains shown) VH: EEQLVESGGGLVKPGGSLRLSCAASGFSFSDCKMYWLRQAPGKGLEWIGVISVKSENYGANYAESVRGRFTISRDDSKNTVYLQMNSLKTEDTAVYYCSASYYRYDVGAWFAYWGQGTLVTVSS VL: DIVMTQSPDSLAVSLGERATINCRASKSVSTSAYSYIYWYQQKPGQPPKLLIYLASILESGVPDRFSGSGSGTDFTLTISSLQAEDVAVYYCQHSRELPWTFGQGTKVEIKR | 6.5 | 7.9 | 9 | 7.8 |  |
| LC A55G HC R33K (antibody, V domains shown) VH: EEQLVESGGGLVKPGGSLRLSCAASGFSFSDCKMYWLRQAPGKGLEWIGVISVKSENYGANYAESVRGRFTISRDDSKNTVYLQMNSLKTEDTAVYYCSASYYRYDVGAWFAYWGQGTLVTVSS VL: DIVMTQSPDSLAVSLGERATINCRASKSVSTSGYSYIYWYQQKPGQPPKLLIYLGSILESGVPDRFSGSGSGTDFTLTISSLQAEDVAVYYCQHSRELPWTFGQGTKVEIKR | 12.1 | 6.4 | 19.3 | 12.6 |  |

The next lines start with the values.

| % Inh1 [1] [%] | % Inh2 [1] [%] | % Inh3 [1] [%] | Avg. % inhibition [1] [%] | binding result [2] | Binder |
| --- | --- | --- | --- | --- | --- |
|  | 25.4 | 25.9 | 26.3 |  | LC master HC master (antibody, human IgG1, kappa, V domains shown) VH: EEQLVESGGGLVKPGGSLRLSCAASGFSFSDCRMYWLRQAPGKGLEWIGVISVKSENYGANYAESVRGRFTISRDDSKNTVYLQMNSLKTEDTAVYYCSASYYRYDVGAWFAYWGQGTLVTVSS VL: DIVMTQSPDSLAVSLGERATINCRASKSVSTSGYSYIYWYQQKPGQPPKLLIYLASILESGVPDRFSGSGSGTDFTLTISSLQAEDVAVYYCQHSRELPWTFGQGTKVEIKR |
|  |  |  |  | no binding | BT061 variant LC master HC Y105W (antibody, V domains shown, also called knockout mutant) VH: EEQLVESGGGLVKPGGSLRLSCAASGFSFSDCRMYWLRQAPGKGLEWIGVISVKSENYGANYAESVRGRFTISRDDSKNTVYLQMNSLKTEDTAVYYCSASYYRWDVGAWFAYWGQGTLVTVSS VL: DIVMTQSPDSLAVSLGERATINCRASKSVSTSGYSYIYWYQQKPGQPPKLLIYLASILESGVPDRFSGSGSGTDFTLTISSLQAEDVAVYYCQHSRELPWTFGQGTKVEIKR |
| 3.1 | -3.6 | 0 | -0.2 |  | LC master HC S101T (antibody, V domains shown) VH: EEQLVESGGGLVKPGGSLRLSCAASGFSFSDCRMYWLRQAPGKGLEWIGVISVKSENYGANYAESVRGRFTISRDDSKNTVYLQMNSLKTEDTAVYYCSATYYRYDVGAWFAYWGQGTLVTVSS VL: DIVMTQSPDSLAVSLGERATINCRASKSVSTSGYSYIYWYQQKPGQPPKLLIYLASILESGVPDRFSGSGSGTDFTLTISSLQAEDVAVYYCQHSRELPWTFGQGTKVEIKR |
| 5.3 | 2 | 7 | 4.8 |  | LC master HC Y105W (antibody, V domains shown) VH: EEQLVESGGGLVKPGGSLRLSCAASGFSFSDCRMYWLRQAPGKGLEWIGVISVKSENYGANYAESVRGRFTISRDDSKNTVYLQMNSLKTEDTAVYYCSASYYRWDVGAWFAYWGQGTLVTVSS VL: DIVMTQSPDSLAVSLGERATINCRASKSVSTSGYSYIYWYQQKPGQPPKLLIYLASILESGVPDRFSGSGSGTDFTLTISSLQAEDVAVYYCQHSRELPWTFGQGTKVEIKR |
